Measured values reported in paper PMC314469, “Protein Interaction Networks by Proteome Peptide Scanning” (PLoS Biology, 2004).
Blank lines part the entries; values can stand above or below the binder they belong to.

Experiments:
[1] = biological target: T1, amphyphisin SH3 (AMPH_HUMAN), P49418; assay: SPOT array
T1 chain: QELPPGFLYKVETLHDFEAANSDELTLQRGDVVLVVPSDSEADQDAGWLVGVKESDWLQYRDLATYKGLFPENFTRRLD

[2] = biological target: endophilin SH3 (SH3G2_HUMAN), Q99962; assay: SPOT array

normalised SPOT signal, Boehringer light units (BLU); mean over the file's lines of this peptide [1]: 58.3
normalised SPOT signal, Boehringer light units (BLU); mean over the file's lines of this peptide [2]: 153
B1: O60292 454-467 (peptide)
chain: HAQSLSRPLKQTPI

normalised SPOT signal, Boehringer light units (BLU); mean over the file's lines of this peptide [1]: 17.6
normalised SPOT signal, Boehringer light units (BLU); mean over the file's lines of this peptide [2]: 1870
B2: P02511 6-19 (peptide)
chain: HHPWIRRPFFPFHS

normalised SPOT signal, Boehringer light units (BLU); mean over the file's lines of this peptide [1]: 43.2
normalised SPOT signal, Boehringer light units (BLU); mean over the file's lines of this peptide [2]: 95.9
B3: Q9HCI5 739-752 (peptide)
chain: ALPHFRRPFFEEAA

normalised SPOT signal, Boehringer light units (BLU); mean over the file's lines of this peptide [1]: 26
normalised SPOT signal, Boehringer light units (BLU); mean over the file's lines of this peptide [2]: 71.6
B4: Q99848 277-290 (peptide)
chain: HGRGLKRPGKKGSN

normalised SPOT signal, Boehringer light units (BLU); mean over the file's lines of this peptide [1]: 16.4
normalised SPOT signal, Boehringer light units (BLU); mean over the file's lines of this peptide [2]: 35.8
B5: Q9NYQ8 617-630 (peptide)
chain: GVISLKRPFINLTA

normalised SPOT signal, Boehringer light units (BLU); mean over the file's lines of this peptide [1]: 4580
normalised SPOT signal, Boehringer light units (BLU); mean over the file's lines of this peptide [2]: 1270
B6: Q9H7M8 395-408 (peptide)
chain: HALHPARPARDHLD

normalised SPOT signal, Boehringer light units (BLU); mean over the file's lines of this peptide [1]: 85.9
normalised SPOT signal, Boehringer light units (BLU); mean over the file's lines of this peptide [2]: 2420
B7: Q9Y4Y7 208-222 (peptide)
chain: GTGSPARPPTPAQV

normalised SPOT signal, Boehringer light units (BLU); mean over the file's lines of this peptide [1]: 8230
normalised SPOT signal, Boehringer light units (BLU); mean over the file's lines of this peptide [2]: 133
B8: Q9Y5K9 654-668 (peptide)
chain: HDDPPQKPPRSITL

normalised SPOT signal, Boehringer light units (BLU); mean over the file's lines of this peptide [1]: 61.8
normalised SPOT signal, Boehringer light units (BLU); mean over the file's lines of this peptide [2]: 577
B9: Q15427 383-397 (peptide)
chain: GYTGPPRPPPYGYQ

normalised SPOT signal, Boehringer light units (BLU); mean over the file's lines of this peptide [1]: 5470
normalised SPOT signal, Boehringer light units (BLU); mean over the file's lines of this peptide [2]: 3720
B10: Q9H7L8 148-161 (peptide)
chain: GTLPPPRPRREGRS

normalised SPOT signal, Boehringer light units (BLU); mean over the file's lines of this peptide [1]: 9890
normalised SPOT signal, Boehringer light units (BLU); mean over the file's lines of this peptide [2]: 2470
B11: P26022 194-207 (peptide)
chain: GSVHPVRPMRLESF

normalised SPOT signal, Boehringer light units (BLU); mean over the file's lines of this peptide [1]: 30.6
normalised SPOT signal, Boehringer light units (BLU); mean over the file's lines of this peptide [2]: 142
B12: Q9C004 264-277 (peptide)
chain: GYDRLRRPGSRSKH

normalised SPOT signal, Boehringer light units (BLU); mean over the file's lines of this peptide [1]: 47.4
normalised SPOT signal, Boehringer light units (BLU); mean over the file's lines of this peptide [2]: 45.8
B13: P98161 595-608 (peptide)
chain: GTQELRRPAQLRLQ

normalised SPOT signal, Boehringer light units (BLU); mean over the file's lines of this peptide [1]: 42.9
normalised SPOT signal, Boehringer light units (BLU); mean over the file's lines of this peptide [2]: 962
B14: Q9Y5K6 406-419 (peptide)
chain: GTVYPKRPEKPVPP

normalised SPOT signal, Boehringer light units (BLU); mean over the file's lines of this peptide [1]: 135
normalised SPOT signal, Boehringer light units (BLU); mean over the file's lines of this peptide [2]: 317
B15: O94987 842-855 (peptide)
chain: GWGSPGRPKKKHTG

normalised SPOT signal, Boehringer light units (BLU); mean over the file's lines of this peptide [1]: 602
normalised SPOT signal, Boehringer light units (BLU); mean over the file's lines of this peptide [2]: 1290
B16: Q9P025 127-140 (peptide)
chain: ALPLPGRPARGVFY

normalised SPOT signal, Boehringer light units (BLU); mean over the file's lines of this peptide [1]: 2550
normalised SPOT signal, Boehringer light units (BLU); mean over the file's lines of this peptide [2]: 39.1
B17: Q99700 27-40 (peptide)
chain: GWRSLQRPARRSGR

normalised SPOT signal, Boehringer light units (BLU); mean over the file's lines of this peptide [1]: 168
normalised SPOT signal, Boehringer light units (BLU); mean over the file's lines of this peptide [2]: 1880
B18: O75928 422-435 (peptide)
chain: GSWSPMRPKKEAMK

normalised SPOT signal, Boehringer light units (BLU); mean over the file's lines of this peptide [1]: 11400
normalised SPOT signal, Boehringer light units (BLU); mean over the file's lines of this peptide [2]: 1420
B19: Q9H7I4 14-27 (peptide)
chain: GTRAPQRPKRESRG

normalised SPOT signal, Boehringer light units (BLU); mean over the file's lines of this peptide [1]: 116
normalised SPOT signal, Boehringer light units (BLU); mean over the file's lines of this peptide [2]: 89.2
B20: P21675 1363-1376 (peptide)
chain: HSDYLNRPHKSIHR

normalised SPOT signal, Boehringer light units (BLU); mean over the file's lines of this peptide [1]: 3230
normalised SPOT signal, Boehringer light units (BLU); mean over the file's lines of this peptide [2]: 5.2
B21: O43158 529-542 (peptide)
chain: HGKGFSRPARPANR

normalised SPOT signal, Boehringer light units (BLU); mean over the file's lines of this peptide [1]: 35
normalised SPOT signal, Boehringer light units (BLU); mean over the file's lines of this peptide [2]: 229
B22: O14842 113-126 (peptide)
chain: GYQAFRRPSYSWGV

normalised SPOT signal, Boehringer light units (BLU); mean over the file's lines of this peptide [1]: 23.4
normalised SPOT signal, Boehringer light units (BLU); mean over the file's lines of this peptide [2]: 194
B23: Q14767 91-104 (peptide)
chain: GWGSPRRPTEAEAR

normalised SPOT signal, Boehringer light units (BLU); mean over the file's lines of this peptide [1]: 31.2
normalised SPOT signal, Boehringer light units (BLU); mean over the file's lines of this peptide [2]: 141
B24: O43610 251-264 (peptide)
chain: GYDSLRRPGSRSKR

normalised SPOT signal, Boehringer light units (BLU); mean over the file's lines of this peptide [1]: 76.8
normalised SPOT signal, Boehringer light units (BLU); mean over the file's lines of this peptide [2]: 836
B25: Q14137 202-215 (peptide)
chain: GWIQPRRPRDPTPS

normalised SPOT signal, Boehringer light units (BLU); mean over the file's lines of this peptide [1]: 160
normalised SPOT signal, Boehringer light units (BLU); mean over the file's lines of this peptide [2]: 150
B26: Q9Y4C9 401-414 (peptide)
chain: HHGRIGRPPKYRKI

normalised SPOT signal, Boehringer light units (BLU); mean over the file's lines of this peptide [1]: 48.3
normalised SPOT signal, Boehringer light units (BLU); mean over the file's lines of this peptide [2]: 247
B27: O60449 4-17 (peptide)
chain: GWATPRRPAGLLML

normalised SPOT signal, Boehringer light units (BLU); mean over the file's lines of this peptide [1]: 2560
normalised SPOT signal, Boehringer light units (BLU); mean over the file's lines of this peptide [2]: 747
B28: O75134 505-518 (peptide)
chain: GYGLLVRPSRVRRA

normalised SPOT signal, Boehringer light units (BLU); mean over the file's lines of this peptide [1]: 33.4
normalised SPOT signal, Boehringer light units (BLU); mean over the file's lines of this peptide [2]: 1130
B29: Q9UN36 56-69 (peptide)
chain: GTPKPKRPAILTYH

normalised SPOT signal, Boehringer light units (BLU); mean over the file's lines of this peptide [1]: 29
normalised SPOT signal, Boehringer light units (BLU); mean over the file's lines of this peptide [2]: 42.6
B30: Q9NVM4 598-611 (peptide)
chain: GTVELRRPGQSHAA

normalised SPOT signal, Boehringer light units (BLU); mean over the file's lines of this peptide [1]: 33.8
normalised SPOT signal, Boehringer light units (BLU); mean over the file's lines of this peptide [2]: 775
B31: Q9Y2L9 5-19 (peptide)
chain: HGRLPARPPFYAPA

normalised SPOT signal, Boehringer light units (BLU); mean over the file's lines of this peptide [1]: 58.3
normalised SPOT signal, Boehringer light units (BLU); mean over the file's lines of this peptide [2]: 328
B32: Q9Y6X0 438-452 (peptide)
chain: GVSKPRKPPMVMTP

normalised SPOT signal, Boehringer light units (BLU); mean over the file's lines of this peptide [1]: 35.4
normalised SPOT signal, Boehringer light units (BLU); mean over the file's lines of this peptide [2]: 11100
B33: P21917 231-244 (peptide)
chain: HGRAPRRPSGPGPP

normalised SPOT signal, Boehringer light units (BLU); mean over the file's lines of this peptide [1]: 14.3
normalised SPOT signal, Boehringer light units (BLU); mean over the file's lines of this peptide [2]: 21.7
B34: Q96AB7 34-47 (peptide)
chain: GTYQLRRPEDRPAG

normalised SPOT signal, Boehringer light units (BLU); mean over the file's lines of this peptide [1]: 31.1
normalised SPOT signal, Boehringer light units (BLU); mean over the file's lines of this peptide [2]: 97.4
B35: Q96LM6 67-80 (peptide)
chain: GYPAFKRPHMTAKD

normalised SPOT signal, Boehringer light units (BLU); mean over the file's lines of this peptide [1]: 151
normalised SPOT signal, Boehringer light units (BLU); mean over the file's lines of this peptide [2]: 5800
B36: Q96MH8 48-61 (peptide)
chain: ALPLPRRPSALPPK

normalised SPOT signal, Boehringer light units (BLU); mean over the file's lines of this peptide [1]: 2390
normalised SPOT signal, Boehringer light units (BLU); mean over the file's lines of this peptide [2]: 308
B37: P29350 24-37 (peptide)
chain: HGSFLARPSRKNQG

normalised SPOT signal, Boehringer light units (BLU); mean over the file's lines of this peptide [1]: 18
normalised SPOT signal, Boehringer light units (BLU); mean over the file's lines of this peptide [2]: 22.2
B38: O60747 405-419 (peptide)
chain: HHHLPERPPFIPEG

normalised SPOT signal, Boehringer light units (BLU); mean over the file's lines of this peptide [1]: 36.2
normalised SPOT signal, Boehringer light units (BLU); mean over the file's lines of this peptide [2]: 33.2
B39: Q96S08 292-305 (peptide)
chain: HAPRIKRPRLQVVK

normalised SPOT signal, Boehringer light units (BLU); mean over the file's lines of this peptide [1]: 847
normalised SPOT signal, Boehringer light units (BLU); mean over the file's lines of this peptide [2]: 4520
B40: Q02833 302-315 (peptide)
chain: ALPPPPRPDRGPPG

normalised SPOT signal, Boehringer light units (BLU); mean over the file's lines of this peptide [1]: 17.4
normalised SPOT signal, Boehringer light units (BLU); mean over the file's lines of this peptide [2]: 88.7
B41: Q9NY27 58-71 (peptide)
chain: GVPVPKRPAEGGGG

normalised SPOT signal, Boehringer light units (BLU); mean over the file's lines of this peptide [1]: 148
normalised SPOT signal, Boehringer light units (BLU); mean over the file's lines of this peptide [2]: 152
B42: P01266 150-163 (peptide)
chain: GTRQLGRPKRSPRS
